One block for each binder: values may come before it.
What was measured:
Assay in all cases: two-hybrid library CCmax;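 further: natural log of median RNA to DNA barcode read ratio; higher means stronger binding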
P6-AA-1HAA-D = target: T1, P6-AA-1HAA-D; settings: mean of both orientations
T1 chain: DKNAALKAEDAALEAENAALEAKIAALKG

P6-AA-1HGe-R = target: T2, P6-AA-1HGe-R; settings: mean of both orientations
T2 chain: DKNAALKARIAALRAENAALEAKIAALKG

P6-AA-1HGe-W = target: T3, P6-AA-1HGe-W; settings: mean of both orientations
T3 chain: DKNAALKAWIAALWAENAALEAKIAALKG

P6-AA-1HAA-R = target: T4, P6-AA-1HAA-R; settings: mean of both orientations
T4 chain: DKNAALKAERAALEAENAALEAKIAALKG

P6-AA-1HAA-K = target: T5, P6-AA-1HAA-K; settings: mean of both orientations
T5 chain: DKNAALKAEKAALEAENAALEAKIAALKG

P5-AA-1HGe-D = target: T6, P5-AA-1HGe-D; settings: mean of both orientations
T6 chain: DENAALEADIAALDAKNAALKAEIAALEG

P5-AA-1HGe-S = target: T7, P5-AA-1HGe-S; settings: mean of both orientations
T7 chain: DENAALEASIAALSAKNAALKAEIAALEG

P5-AA-1HAA-Y = target: T8, P5-AA-1HAA-Y; settings: mean of both orientations
T8 chain: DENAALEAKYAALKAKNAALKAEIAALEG

P5-AA-12HGe-S = target: T9, P5-AA-12HGe-S; settings: mean of both orientations
T9 chain: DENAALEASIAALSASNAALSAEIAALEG

P5-AA-1HAA-V = target: T10, P5-AA-1HAA-V; settings: mean of both orientations
T10 chain: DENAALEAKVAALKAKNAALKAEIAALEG

P5-AA-1HAA-H = target: T11, P5-AA-1HAA-H; settings: mean of both orientations
T11 chain: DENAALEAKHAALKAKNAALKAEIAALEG

P5-AA-12HGe-T = target: T12, P5-AA-12HGe-T; settings: mean of both orientations
T12 chain: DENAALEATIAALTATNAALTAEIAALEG

P5-AA-12HGe-W = target: T13, P5-AA-12HGe-W; settings: mean of both orientations
T13 chain: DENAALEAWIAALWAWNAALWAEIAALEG

P5-AA-1HGe-Y = target: T14, P5-AA-1HGe-Y; settings: mean of both orientations
T14 chain: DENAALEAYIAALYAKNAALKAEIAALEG

P5-AA-1HAA-L = target: T15, P5-AA-1HAA-L; settings: mean of both orientations
T15 chain: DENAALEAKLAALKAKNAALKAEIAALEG

P5-AA-1HGe-M = target: T16, P5-AA-1HGe-M; settings: mean of both orientations
T16 chain: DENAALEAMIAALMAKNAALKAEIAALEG

P5-AA-12HGe-A = target: T17, P5-AA-12HGe-A; settings: mean of both orientations
T17 chain: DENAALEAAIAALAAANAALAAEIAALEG

4H140-AA = target: T18, 4H140-AA; settings: mean of both orientations
T18 chain: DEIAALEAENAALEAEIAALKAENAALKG

4H3705-AA = target: T19, 4H3705-AA; settings: mean of both orientations
T19 chain: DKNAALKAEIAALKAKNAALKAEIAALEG

4H3651-AA = target: T20, 4H3651-AA; settings: mean of both orientations
T20 chain: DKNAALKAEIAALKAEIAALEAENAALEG

4H2238-AA = target: T21, 4H2238-AA; settings: mean of both orientations
T21 chain: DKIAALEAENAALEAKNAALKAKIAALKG

4H1405-AA = target: T22, 4H1405-AA; settings: mean of both orientations
T22 chain: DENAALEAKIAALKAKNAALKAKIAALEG

4H2935-AA = target: T23, 4H2935-AA; settings: mean of both orientations
T23 chain: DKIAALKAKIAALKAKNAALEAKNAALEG

4H2726-AA = target: T24, 4H2726-AA; settings: mean of both orientations
T24 chain: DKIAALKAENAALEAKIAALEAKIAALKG

4H775-AA = target: T25, 4H775-AA; settings: mean of both orientations
T25 chain: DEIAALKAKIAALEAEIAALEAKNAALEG

4H2687-AA = target: T26, 4H2687-AA; settings: mean of both orientations
T26 chain: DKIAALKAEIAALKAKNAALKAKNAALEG

APC4264-AA = target: T27, APC4264-AA; settings: mean of both orientations
T27 chain: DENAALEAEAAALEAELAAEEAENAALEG

APC5383-AA = target: T28, APC5383-AA; settings: mean of both orientations
T28 chain: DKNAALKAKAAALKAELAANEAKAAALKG

APC2237-AA = target: T29, APC2237-AA; settings: mean of both orientations
T29 chain: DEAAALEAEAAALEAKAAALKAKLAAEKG

APC1015-AA = target: T30, APC1015-AA
T30 chain: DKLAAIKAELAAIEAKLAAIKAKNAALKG

4H2604-AA = target: T31, 4H2604-AA; settings: mean of both orientations
T31 chain: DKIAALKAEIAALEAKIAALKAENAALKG

4H3915-AA = target: T32, 4H3915-AA; settings: mean of both orientations
T32 chain: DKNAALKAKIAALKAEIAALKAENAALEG

4H3619-AA = target: T33, 4H3619-AA; settings: mean of both orientations
T33 chain: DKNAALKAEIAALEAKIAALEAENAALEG

4H1324-AA = target: T34, 4H1324-AA; settings: mean of both orientations
T34 chain: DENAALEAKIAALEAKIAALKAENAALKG

4H1352-AA = target: T35, 4H1352-AA
T35 chain: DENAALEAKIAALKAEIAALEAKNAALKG

4H1854-AA = target: T36, 4H1854-AA; settings: mean of both orientations
T36 chain: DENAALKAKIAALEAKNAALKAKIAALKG

4H2991-AA = target: T37, 4H2991-AA; settings: mean of both orientations
T37 chain: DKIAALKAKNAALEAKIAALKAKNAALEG

4H2742-AA = target: T38, 4H2742-AA; settings: mean of both orientations
T38 chain: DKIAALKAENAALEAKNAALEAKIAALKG

4H3709-AA = target: T39, 4H3709-AA; settings: mean of both orientations
T39 chain: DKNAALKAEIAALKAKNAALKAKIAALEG

4H971-AA = target: T40, 4H971-AA; settings: mean of both orientations
T40 chain: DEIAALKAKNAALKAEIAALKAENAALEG

4H497-AA = target: T41, 4H497-AA; settings: mean of both orientations
T41 chain: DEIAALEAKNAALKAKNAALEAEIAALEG

4H3029-AA = target: T42, 4H3029-AA; settings: mean of both orientations
T42 chain: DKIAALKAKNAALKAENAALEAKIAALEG

interaction score (P6-AA-1HAA-D): 0.667
interaction score (P6-AA-1HGe-R): 1.53
interaction score (P6-AA-1HGe-W): 1.14
interaction score (P6-AA-1HAA-R): 1.83
interaction score (P6-AA-1HAA-K): 2.04
Binder: DENAALEAKIAALKAKNAALKAEIAALEG [4H1401-AA]

interaction score (P5-AA-1HGe-D): 1.14
interaction score (P5-AA-1HGe-S): 2.03
interaction score (P5-AA-1HAA-Y): 2.23
interaction score (P5-AA-12HGe-S): -0.516
interaction score (P5-AA-1HAA-V): 2.23
interaction score (P5-AA-1HAA-H): 2.02
interaction score (P5-AA-12HGe-T): 1.23
interaction score (P5-AA-12HGe-W): 1.04
interaction score (P5-AA-1HGe-Y): 2.36
interaction score (P5-AA-1HAA-L): 2.39
interaction score (P5-AA-1HGe-M): 2.26
interaction score (P5-AA-12HGe-A): 0.833
Binder: DKNAALKAEIAALEAENAALEAKIAALKG [4H3606-AA]

interaction score (4H140-AA): -1.43
interaction score (4H3705-AA): -1.52
interaction score (4H3651-AA): -1.01
Binder: DENAALEAENAALKAKIAALKAEIAALEG [4H1257-AA]

interaction score (4H2238-AA): -1.14
interaction score (4H1405-AA): -0.893
interaction score (4H2935-AA): -0.765
interaction score (4H2726-AA): -0.0467
interaction score (4H775-AA): 1.63
interaction score (4H2687-AA): -0.889
Binder: DENAALEAKIAALKAEIAALEAKIAALKG [4H1350-AA]

interaction score (APC4264-AA): -1.79
interaction score (APC5383-AA): -1.57
interaction score (APC2237-AA): -1.46
interaction score (APC1015-AA): -1.28
Binder: DENAALKAKIAALEAKNAALEAKIAALEG [4H1845-AA]

interaction score (4H2604-AA): -1.73
interaction score (4H3915-AA): -0.705
interaction score (4H3619-AA): -1.97
Binder: DEIAALEAENAALKAKNAALKAEIAALEG [4H249-AA]

interaction score (4H1324-AA): -0.874
interaction score (4H1352-AA): 0
Binder: DENAALEAENAALEAEIAALEAEIAALEG [4H1153-AA]

interaction score (4H1854-AA): -1.4
interaction score (4H2991-AA): -0.846
interaction score (4H2742-AA): -1.78
interaction score (4H3709-AA): -0.57
interaction score (4H971-AA): -1.08
interaction score (4H497-AA): -1.3
interaction score (4H3029-AA): -1.16
Binder: DENAALEAEIAALEAKIAALEAKNAALKG [4H1064-AA]

Source: publication PMC10397247
